Assay results published in US20220411840A1, “High Efficiency Template-Free Enzymatic Synthesis of Polynucleotides” (DNA Script, priority 2019, published 2022).

Columns and labels:
[1] = tested on: polyT primer (5′-TTTTTTTTTTTTTTTTTTTT (20T), SEQ ID NO: 8); experiment: Incorporation of 3′-O-azidomethyl nucleoside triphosphates (AM-dNTPs) by TdT variants on primer polyT in solution; type: biochemical; conditions: 1 uM primer, 2 uM TdT variant, 80 uM AM-dNTP, 10% DMSO, 5 min at 37° C.
[2] = tested on: synGG primer (5′-TGTGAGAGTGAAATGAGG, SEQ ID NO: 7); experiment: Incorporation of 3′-O-azidomethyl nucleoside triphosphates (AM-dNTPs) by TdT variants on primer synGG in solution; type: biochemical; conditions: 1 uM primer, 2 uM TdT variant, 80 uM AM-dNTP, 10% DMSO, 5 min at 37° C.

Row | Molecule | Percentage of AM-dNTP Incorporation (percentage of extended primers) ([1]; AM-dNTP: A) | Percentage of AM-dNTP Incorporation (percentage of extended primers) ([1]; AM-dNTP: C) | Percentage of AM-dNTP Incorporation (percentage of extended primers) ([1]; AM-dNTP: G) | Percentage of AM-dNTP Incorporation (percentage of extended primers) ([1]; AM-dNTP: T) | Percentage of AM-dNTP Incorporation (percentage of extended primers) ([2]; AM-dNTP: A) | Percentage of AM-dNTP Incorporation (percentage of extended primers) ([2]; AM-dNTP: C) | Percentage of AM-dNTP Incorporation (percentage of extended primers) ([2]; AM-dNTP: G) | Percentage of AM-dNTP Incorporation (percentage of extended primers) ([2]; AM-dNTP: T)
1 | M55: ACT-TdT variant: SEQ ID NO: 1 with substitutions A17V+Q37E+D41R+L52F+G57E+M63R+S94R+G98E+A108V+S146E+K147R+Q149R+C173G+M184T+R207L+K209H+M210Q+G284L+E289A+R325V+E328K+N345E+R351K (protein, truncated mouse TdT) NSSPSPVPGSQNVPAPVVKKISQYACQRRTTLNNYNELFTRALDILAENDEFRENEESCLAFRRASSVLKSLPFPITSMKDTEGIPCLGDKVKRIIEEIIEDGESSEVKAVLNDERYKSFKLFTSVFGVGLKTAEKWFRMGFRTLERIRSDKSLRFTQMQKAGFLYYEDLVSGVNRPEAEAVSTLVKEAVVTFLPDALVTMTGGFRLGHQTGHDVDFLITSPEATEDEEQQLLHKVTDFWKQQGLLLYCDILESTFEKFKQPSRKVDALDHFQKCFLILKLDHLRVHSAKSGQQEGKGWKAIRVDLVMCPYDRRAFALLGWTGSVQFKRDLRRYATHERKMMLDEHALYDKTKRVFLEAESEEEIFAHLGLDYIEPWERNA | 15% | 69% | 12% | 61% | 74% | 86% | 30% | 76%
2 | M56: G-TdT variant: SEQ ID NO: 1 with substitutions A17V+Q37E+D41R+L52F+G57E+M63R+I76V+S94R+G98E+A108V+S146E+Q149R+C173G+M184T+R207L+K209H+F259E+Q261R+K265G+G284L+E289A+R325V+E328N+R351K (protein, truncated mouse TdT) NSSPSPVPGSQNVPAPVVKKISQYACQRRTTLNNYNELFTRALDILAENDEFRENEESCLAFRRASSVLKSLPFPVTSMKDTEGIPCLGDKVKRIIEEIIEDGESSEVKAVLNDERYKSFKLFTSVFGVGLKTAEKWFRMGFRTLEKIRSDKSLRFTQMQKAGFLYYEDLVSGVNRPEAEAVSTLVKEAVVTFLPDALVTMTGGFRLGHMTGHDVDFLITSPEATEDEEQQLLHKVTDFWKQQGLLLYCDILESTFEKEKRPSRGVDALDHFQKCFLILKLDHLRVHSAKSGQQEGKGWKAIRVDLVMCPYDRRAFALLGWTGSVQFNRDLRRYATHERKMMLDNHALYDKTKRVFLEAESEEEIFAHLGLDYIEPWERNA | 0% | 27% | 15% | 52% | 4% | 68% | 65% | 71%
